± gives the uncertainty stated by the source.
B1: Endonuclease CUE2, residues 9 to 47; numbered along this chain, P36075 (parent)
chain: HESKLSILMDMFPAISKSKLQVHLLENNNDLDLTIGLLL
B2: Telomeric repeat-binding factor 2, residues 489 to 542; numbered along this chain, Q15554 (parent)
chain: KQKWTVEESEWVKAGVQKYGEGNWAAISKNYPFVNRTAVMIKDRWRTMKRLGMN

Variants of: B1
Test: abundance fitness (aPCA) (normalised: wild type 0, dead -1); higher = more abundant; growth selection in yeast, the domain comes from the species named
Conditions: Saccharomyces cerevisiae (strain ATCC 204508 / S288c)

Abundance fitness, by site and new letter:
H1: R 0.284 ± 0.035 | K 0.312 ± 0.062 | V 0.28 ± 0.045 | C 0.351 ± 0.12 | T 0.467 ± 0.062 | W 0.05 ± 0.039 | S 0.174 ± 0.06 | A 0.264 ± 0.093 | M 0.255 ± 0.09 | G 0.237 ± 0.037 | L 0.377 ± 0.045 | D 0.064 ± 0.36 | E 0.361 ± 0.043

Variants of: B2
Test: as above
Conditions: Homo sapiens

Abundance fitness, by site and new letter:
I41: D -0.673 ± 0.16 | S -1.13 ± 0.38 | C -0.692 ± 0.15 | F -0.616 ± 0.096 | R -1.16 ± 0.15 | W -1.01 ± 0.34 | N -0.945 ± 0.15 | V -0.392 ± 0.056 | G -1.06 ± 0.1 | T -0.786 ± 0.28 | E -0.975 ± 0.17 | A -1.02 ± 0.12
L51: I -0.241 ± 0.13 | S -0.025 ± 0.054 | G -0.035 ± 0.052 | M -0.051 ± 0.065 | W -0.05 ± 0.073 | E 0.283 ± 0.075 | C -0.171 ± 0.096 | Y -0.063 ± 0.12 | H 0.031 ± 0.4 | T 0.101 ± 0.09 | V 0.006 ± 0.05 | A -0.043 ± 0.08 | F -0.355 ± 0.16 | P -0.394 ± 0.063 | D -0.259 ± 0.13 | Q 0.036 ± 0.064
K42: S -0.16 ± 0.076 | A -0.141 ± 0.065 | C -0.124 ± 0.12 | L -0.571 ± 0.071 | N -0.417 ± 0.18 | F -0.544 ± 0.27 | Y -0.448 ± 0.2 | D -0.457 ± 0.23 | E -0.016 ± 0.081 | G -0.309 ± 0.069 | T -0.614 ± 0.18 | W -0.653 ± 0.13 | H -0.881 ± 0.42 | P -0.961 ± 0.19 | V -0.77 ± 0.082 | M -0.207 ± 0.057 | R 0.035 ± 0.041
M48: T -0.635 ± 0.16 | F -0.688 ± 0.34 | Q -0.64 ± 0.15 | G -1.02 ± 0.1 | Y -0.696 ± 0.24 | P -0.886 ± 0.069 | D -0.507 ± 0.28 | V -0.463 ± 0.077 | A -0.821 ± 0.17 | E -0.674 ± 0.24 | N -0.376 ± 0.099 | R -1 ± 0.16 | L -0.177 ± 0.048 | C -0.912 ± 0.28 | W -0.359 ± 0.12 | S -0.95 ± 0.2 | K -0.978 ± 0.44 | I -0.395 ± 0.092
R50: P -0.176 ± 0.11 | S 0.068 ± 0.056 | F 0.076 ± 0.094 | Q -0.026 ± 0.043 | E 0.052 ± 0.099 | I 0.286 ± 0.09 | L -0.252 ± 0.084 | K 0.178 ± 0.11 | A 0.007 ± 0.052 | N -0.054 ± 0.12 | Y -0.456 ± 0.17 | W -0.253 ± 0.14 | V -0.07 ± 0.074 | H -0.553 ± 0.21 | M 0.007 ± 0.16 | T -0.016 ± 0.046
R44: P -0.863 ± 0.08 | M -0.234 ± 0.076 | L -0.22 ± 0.04 | A -0.236 ± 0.048 | H 0.125 ± 0.045 | D -1.03 ± 0.19 | E -0.59 ± 0.093 | N -0.662 ± 0.067 | G -0.466 ± 0.058 | I -0.498 ± 0.081 | S -0.508 ± 0.045 | W -0.397 ± 0.084 | Y -0.218 ± 0.062 | V -0.325 ± 0.055 | K -0.124 ± 0.049 | Q -0.079 ± 0.051 | F -0.185 ± 0.048 | C -0.214 ± 0.054
V34: S -0.172 ± 0.04 | M 0.208 ± 0.11 | L -0.057 ± 0.071 | Q 0.134 ± 0.17 | T 0.193 ± 0.12 | P -0.49 ± 0.092 | Y -0.331 ± 0.17 | N -0.564 ± 0.22 | W -0.366 ± 0.12 | K -0.304 ± 0.21
D43: I -0.866 ± 0.24 | C -0.449 ± 0.091 | E -0.046 ± 0.056 | M -0.368 ± 0.083 | K 0.011 ± 0.11 | W -0.502 ± 0.073 | Q -0.07 ± 0.11 | Y -0.364 ± 0.12 | F -0.68 ± 0.17 | R -0.072 ± 0.074 | P -0.942 ± 0.27 | S -0.204 ± 0.078 | N -0.061 ± 0.1 | G -0.672 ± 0.097
R46: L 0.054 ± 0.049 | V 0.005 ± 0.039 | H 0.011 ± 0.12 | K -0.007 ± 0.2 | Y 0.181 ± 0.072 | N 0.047 ± 0.17 | Q -0.004 ± 0.12 | I 0.015 ± 0.12 | P -0.828 ± 0.41 | M 0.325 ± 0.089 | F 0.073 ± 0.067 | S 0.043 ± 0.06 | A 0.106 ± 0.069 | W -0.106 ± 0.039 | E 0.204 ± 0.09 | C -0.133 ± 0.076 | D -0.195 ± 0.13 | T 0.136 ± 0.084
W45: G -0.982 ± 0.12 | C -0.81 ± 0.13 | K -1.09 ± 0.14 | E -0.571 ± 0.047 | Y -0.318 ± 0.1 | T -0.986 ± 0.19 | I -0.65 ± 0.074 | S -0.933 ± 0.18 | L -0.815 ± 0.087 | A -0.691 ± 0.06 | Q -0.914 ± 0.094 | F -0.747 ± 0.2 | R -0.953 ± 0.16 | V -0.866 ± 0.089
A38: T 0.188 ± 0.18 | C -0.336 ± 0.1 | K -0.297 ± 0.1 | S -0.204 ± 0.054 | H -0.413 ± 0.19 | F -0.334 ± 0.16 | P 0.014 ± 0.054 | W 0.013 ± 0.068 | E -0.126 ± 0.092 | V -0.123 ± 0.047 | L -0.372 ± 0.08 | R -0.575 ± 0.075 | Q -0.15 ± 0.11 | D -0.276 ± 0.08 | G -0.371 ± 0.044
N54: F -0.537 ± 0.28 | A 0.246 ± 0.11 | Y -0.399 ± 0.16 | W -0.166 ± 0.077 | S -0.051 ± 0.13 | T 0.544 ± 0.12 | H 0.092 ± 0.37 | I -0.032 ± 0.12 | V -0.075 ± 0.092 | G 0.344 ± 0.14 | D -0.038 ± 0.22
K49: Q -0.054 ± 0.16 | F -0.535 ± 0.14 | P -0.766 ± 0.2 | R -0.358 ± 0.043 | C 0.116 ± 0.086 | T -0.142 ± 0.045 | D -0.507 ± 0.14 | A -0.29 ± 0.046 | W -0.334 ± 0.22 | H -0.462 ± 0.23 | L -0.302 ± 0.045 | I -0.415 ± 0.16 | N -0.597 ± 0.16 | G -0.568 ± 0.073 | M -0.657 ± 0.19 | S -0.286 ± 0.056 | E -0.235 ± 0.054
V39: N 0.253 ± 0.089 | R 0.032 ± 0.061 | E 0.008 ± 0.07 | F -0.274 ± 0.08 | M 0.1 ± 0.1 | H -0.442 ± 0.23 | C 0.203 ± 0.086 | L -0.154 ± 0.055 | G -0.005 ± 0.054 | T 0.135 ± 0.06 | P 0.059 ± 0.12 | S 0.057 ± 0.049 | Q 0.001 ± 0.087 | I -0.075 ± 0.13 | Y -0.015 ± 0.11 | A 0.091 ± 0.087
M40: E 0.17 ± 0.086 | S -0.051 ± 0.077 | L -0.508 ± 0.057 | P -0.935 ± 0.1 | K -0.377 ± 0.13 | G -0.406 ± 0.061 | W 0.066 ± 0.071 | A -0.015 ± 0.058 | D 0.106 ± 0.057 | H -0.119 ± 0.23 | R -0.663 ± 0.07 | T -0.52 ± 0.058 | Y -0.869 ± 0.39 | C 0.169 ± 0.095 | N -0.53 ± 0.18 | F 0.11 ± 0.12
T37: R -0.999 ± 0.093 | N -0.614 ± 0.16 | V -0.461 ± 0.085 | Q -0.903 ± 0.26 | P -0.404 ± 0.12 | L -0.256 ± 0.054 | F -0.629 ± 0.15 | M -0.974 ± 0.27 | C -0.724 ± 0.14 | G -0.668 ± 0.063 | K -0.789 ± 0.12 | Y -0.967 ± 0.41 | I -0.689 ± 0.17 | D -0.247 ± 0.082
N35: H -0.277 ± 0.35 | R -0.317 ± 0.083 | G -0.259 ± 0.057 | Q 0.215 ± 0.12 | S -0.27 ± 0.041 | M -0.555 ± 0.12 | Y -0.375 ± 0.15 | E -0.185 ± 0.11 | P -1.09 ± 0.34 | C -0.71 ± 0.18 | V -0.643 ± 0.06 | K -0.222 ± 0.21 | I -0.758 ± 0.14 | T -0.476 ± 0.082 | F -1.14 ± 0.26 | W -0.588 ± 0.13
T47: S -0.017 ± 0.079 | N -0.281 ± 0.38 | Y 0.015 ± 0.047 | C -0.083 ± 0.11 | I -0.094 ± 0.1 | F -0.658 ± 0.2 | A 0.059 ± 0.065 | W -0.276 ± 0.065 | K -0.05 ± 0.058 | E 0.177 ± 0.071 | Q 0.042 ± 0.12 | V -0.157 ± 0.074 | R -0.204 ± 0.048 | D 0.145 ± 0.12 | M -0.18 ± 0.05 | P -0.67 ± 0.19
G52: W -0.449 ± 0.11 | C -0.087 ± 0.061 | D -0.011 ± 0.13 | T -0.1 ± 0.24 | I -0.019 ± 0.065 | V 0.004 ± 0.076 | N 0.049 ± 0.12 | F -0.223 ± 0.059 | P 0.243 ± 0.1 | S -0.358 ± 0.086 | R -0.119 ± 0.059 | Q -0.201 ± 0.11 | A -0.304 ± 0.085 | L -0.195 ± 0.054 | Y -0.485 ± 0.19 | H -0.215 ± 0.13 | K -0.149 ± 0.13 | E -0.071 ± 0.1
M53: T -0.249 ± 0.16 | P -0.147 ± 0.15 | R -0.311 ± 0.072 | D 0.349 ± 0.093 | G -0.007 ± 0.058 | I -0.141 ± 0.12 | V -0.184 ± 0.07 | H -0.249 ± 0.3 | L 0.026 ± 0.079 | E 0.01 ± 0.095 | A -0.134 ± 0.068 | W -0.329 ± 0.088 | K -0.269 ± 0.19 | Y -0.686 ± 0.31 | Q -0.099 ± 0.099 | S -0.145 ± 0.1
R36: W -0.95 ± 0.14 | K 0.228 ± 0.098 | Q -0.897 ± 0.28 | V -0.4 ± 0.051 | G -0.816 ± 0.051 | S -0.654 ± 0.086 | Y -0.614 ± 0.25 | M -0.693 ± 0.24 | A -0.367 ± 0.069 | I -0.685 ± 0.33 | T -0.853 ± 0.25 | C -0.495 ± 0.12 | H -0.649 ± 0.28

Source: the Human Domainome abundance scans (Beltran et al. 2025)
